Assay results from patent publication US8895526B2, “Identification of RNAI targets and use of RNAI for rational therapy of chemotherapy-resistant leukemia and other cancers” (Cold Spring Harbor Laboratory, priority 2009, dated 2014).

B1: Centd3.3993: shRNA, SEQ ID NO: 107 (nucleic acid)
chain: TGCTGTTGACAGTGAGCGCCTGGACCACAAGCATCCTTAATAGTGAAGCCACAGATGTATTAAGGATGCTTGTGGTCCAGTTGCCTACTGCCTCGGA
B2: Slc11a1.307: shRNA, SEQ ID NO: 178 (nucleic acid)
chain: TGCTGTTGACAGTGAGCGCAACATTGAGTCCGACCTTCAATAGTGAAGCCACAGATGTATTGAAGGTCGGACTCAATGTTTTGCCTACTGCCTCGGA
B3: Cdc42ep1.317: shRNA, SEQ ID NO: 103 (nucleic acid)
chain: TGCTGTTGACAGTGAGCGCCTAGCAGTTGTAAGCAATCAATAGTGAAGCCACAGATGTATTGATTGCTTACAACTGCTAGTTGCCTACTGCCTCGGA
B4: Rbks.337: shRNA, SEQ ID NO: 172 (nucleic acid)
chain: TGCTGTTGACAGTGAGCGAAGCCTCCATAATTGTCAATAATAGTGAAGCCACAGATGTATTATTGACAATTATGGAGGCTGTGCCTACTGCCTCGGA
B5: Nrp1.2022: shRNA, SEQ ID NO: 154 (nucleic acid)
chain: TGCTGTTGACAGTGAGCGACACAAGGTTCATCAGGATCTATAGTGAAGCCACAGATGTATAGATCCTGATGAACCTTGTGGTGCCTACTGCCTCGGA
B6: Pkm2.2154: shRNA, SEQ ID NO: 166 (nucleic acid)
chain: TGCTGTTGACAGTGAGCGCGCCCACCTGAATGTCAATAAATAGTGAAGCCACAGATGTATTTATTGACATTCAGGTGGGCATGCCTACTGCCTCGGA
B7: Pde1b.2027: shRNA, SEQ ID NO: 162 (nucleic acid)
chain: TGCTGTTGACAGTGAGCGCTGCCTCCAAGTTTCTAAGCAATAGTGAAGCCACAGATGTATTGCTTAGAAACTTGGAGGCAATGCCTACTGCCTCGGA
B8: Tex14.3976: shRNA, SEQ ID NO: 185 (nucleic acid)
chain: TGCTGTTGACAGTGAGCGCCAGGAGCTACTTGATGAAATTTAGTGAAGCCACAGATGTAAATTTCATCAAGTAGCTCCTGATGCCTACTGCCTCGGA
B9: Fpr1.375: shRNA, SEQ ID NO: 124 (nucleic acid)
chain: TGCTGTTGACAGTGAGCGATTGGTTCATGTGCAAATTCATTAGTGAAGCCACAGATGTAATGAATTTGCACATGAACCAACTGCCTACTGCCTCGGA
B10: Lima1.3235: shRNA, SEQ ID NO: 138 (nucleic acid)
chain: TGCTGTTGACAGTGAGCGAACGGACATTGTACCCAGATAATAGTGAAGCCACAGATGTATTATCTGGGTACAATGTCCGTCTGCCTACTGCCTCGGA
B11: Ctbs.796: shRNA, SEQ ID NO: 110 (nucleic acid)
chain: TGCTGTTGACAGTGAGCGCCCCACAGAGCATCTCACTAAATAGTGAAGCCACAGATGTATTTAGTGAGATGCTCTGTGGGTTGCCTACTGCCTCGGA
B12: Dio2.2087: shRNA, SEQ ID NO: 112 (nucleic acid)
chain: TGCTGTTGACAGTGAGCGCCAGGAATTTGGTTAAATGGAATAGTGAAGCCACAGATGTATTCCATTTAACCAAATTCCTGTTGCCTACTGCCTCGGA
B13: Klrb1b.845: shRNA, SEQ ID NO: 136 (nucleic acid)
chain: TGCTGTTGACAGTGAGCGCCAGATTCTTCATTGTATAAATTAGTGAAGCCACAGATGTAATTTATACAATGAAGAATCTGTTGCCTACTGCCTCGGA
B14: Htatip2.575: shRNA, SEQ ID NO: 133 (nucleic acid)
chain: TGCTGTTGACAGTGAGCGACAGCAGTTTCTTATACCTACATAGTGAAGCCACAGATGTATGTAGGTATAAGAAACTGCTGGTGCCTACTGCCTCGGA
B15: Pdgfrb.1028: shRNA, SEQ ID NO: 163 (nucleic acid)
chain: TGCTGTTGACAGTGAGCGAAACGACCATGGCGATGAGAAATAGTGAAGCCACAGATGTATTTCTCATCGCCATGGTCGTTCTGCCTACTGCCTCGGA
B16: Casp1.248: shRNA, SEQ ID NO: 100 (nucleic acid)
chain: TGCTGTTGACAGTGAGCGCCAGTGAGTATAGGGACAATAATAGTGAAGCCACAGATGTATTATTGTCCCTATACTCACTGATGCCTACTGCCTCGGA
B17: Aspa.996: shRNA, SEQ ID NO: 92 (nucleic acid)
chain: TGCTGTTGACAGTGAGCGCATGAAGCTGCATATTATGAAATAGTGAAGCCACAGATGTATTTCATAATATGCAGCTTCATTTGCCTACTGCCTCGGA
B18: Pgam1.1811: shRNA, SEQ ID NO: 164 (nucleic acid)
chain: TGCTGTTGACAGTGAGCGCAAGGAGTGATGTGCAATACTTTAGTGAAGCCACAGATGTAAAGTATTGCACATCACTCCTTTTGCCTACTGCCTCGGA
B19: Nmur1.7: shRNA, SEQ ID NO: 152 (nucleic acid)
chain: TGCTGTTGACAGTGAGCGCCTGCAATATCAGTGAGTTCAATAGTGAAGCCACAGATGTATTGAACTCACTGATATTGCAGATGCCTACTGCCTCGGA
B20: Myo7a.618: shRNA, SEQ ID NO: 149 (nucleic acid)
chain: TGCTGTTGACAGTGAGCGCCCGCCAGTACACCAACAAGAATAGTGAAGCCACAGATGTATTCTTGTTGGTGTACTGGCGGATGCCTACTGCCTCGGA
B21: S100a9.148: shRNA, SEQ ID NO: 177 (nucleic acid)
chain: TGCTGTTGACAGTGAGCGCCAGACAAATGGTGGAAGCACATAGTGAAGCCACAGATGTATGTGCTTCCACCATTTGTCTGATGCCTACTGCCTCGGA
B22: Wnt10b.1717: shRNA, SEQ ID NO: 190 (nucleic acid)
chain: TGCTGTTGACAGTGAGCGCCTCGAATAGACTAAGATGAAATAGTGAAGCCACAGATGTATTTCATCTTAGTCTATTCGAGTTGCCTACTGCCTCGGA
B23: Rgs6.896: shRNA, SEQ ID NO: 173 (nucleic acid)
chain: TGCTGTTGACAGTGAGCGCCAAGTGAAGATTGACCGGAAATAGTGAAGCCACAGATGTATTTCCGGTCAATCTTCACTTGTTGCCTACTGCCTCGGA

Tested on: immortalized murine embryonic fibroblasts (Mef)
Test: Pooled negative selection RNAi screening (deep sequencing)
Format: cell-based
Conditions: deep sequencing reads, on dox compared to initial representation
From the text: (§1) In addition to the analysis of single shRNAs for inhibitory effects in vitro and in vivo, the combination of tet-on competent cancer models and tet-regulatable shRNA expression vectors allowing for monitoring shRNA expression through fluorescent and other reporter genes (e.g. TRMPV and derivates) facilitates pooled shRNA negative selection screening (FIG. 37). In such approaches a pool of over 1,000 shRNAs are retrovirally transduced into tet-on competent cancer models (here MLL/AF9+Nras AML) and selected for shRNA containing cells by either drug selection (e.g. G418) or fluorescence-activated cell sorting (FACS). Selected cell populations harboring a library of shRNAs then can be cultured in the absence or presence of doxycyline (off dox and on dox, respectively) or injected into syngeneic recipient mice that are either treated with doxycyline or left untreated.
(§2) The representation of each shRNA within the pool can be effectively assessed by deep sequencing of shRNA cassettes in a given cell population. For this, genomic DNA is extracted from leukemia cells containing the shRNA pool, and the shRNA guide or passenger strand (21-22 target gene specific nucleotides of the shRNA) by PCR using primers specific for common sequences flanking the gene specific part of the shRNA (e.g. miR30 19 nt loop and miR30 common 3′ sequence). The primers also contain 5′-adapters required for deep sequencing (e.g. for Illumina/Solexa sequencing primers are p5+mir3: 5′-[…]-3′ (SEQ ID NO: 215) and p7+Loop: 5′-[…]-3′ (SEQ ID NO: 216)). Deep sequencing is subsequently performed using a primer binding the flanking nucleotide sequence next to the target gene specific part of the shRNA (for Illumina/Solexa platforms the primer is mir30EcoR1Seq: 5′-TAGCCCCTTGAATTCCGA GGCAGTAGGCA-3′ (SEQ ID NO: 217)).
(§3) The use of shRNA vectors that allow for monitoring of shRNA expression through fluorescent and other reporter genes (e.g. TRMPV) in combination with tet-on competent mouse models facilitates the isolation of pure shRNA expressing cell populations (e.g. by FACS, for TRMPV by sorting of Venus/dsRed double positive cells (FIG. 38). This selection of shRNA expressing cells prior to DNA isolation strongly reduces the background caused by cell populations with insufficient shRNA induction, which are predicted to contain genomic representation of the whole shRNA library without shRNA specific shifts in representation. The final readout is based on the comparison of shRNA representation (i.e. deep sequencing read numbers) before the assay (t0) or from cell populations left without doxycycline treatment (off dox) to those where shRNA were induced and cells subsequently sorted for shRNA expressing cells (on dox). shRNA with inhibitory effects are predicted to loose representation (show less reads) on dox compared to t0 and off dox.
(§4) This pooled is RNAi screening strategy can be applied to rapidly survey inhibitory effects of large pools of shRNAs (˜1000 at a time) in different tet-on competent cancer models and normal control cells (FIG. 39). For example, a pool of 1166 shRNAs targeting 836 predominantly druggable genes associated with MLL fusion proteins in human leukemia and mouse models of MLL/AF9-induced AML (MLL cure library) was analyzed in pooled negative selection screening in tet-on competent MLL/AF9+Nras AML and immortalized murine embryonic fibroblasts (Mef) in parallel. To establish and validate this screening approach, the pool also contained 64 control shRNAs each of which have been previously analyzed for inhibitory effects in both AML cells and Mefs using the same experimental system (FIG. 40).
(§5) After pooling of 1166 experimental and 64 control shRNAs the presence of shRNAs was verified by deep sequencing of shRNAs within the plasmid vector pool (FIG. 41). […]

In order of rising “Fold depletion in Mef” value:
1. B18  0.17 Fold
2. B11  0.19 Fold
3. B2  0.41 Fold
4. B13  0.43 Fold
5. B10  0.56 Fold
6. B17  0.68 Fold
7. B4  1.07 Fold
8. B14  1.08 Fold
9. B7  1.31 Fold
10. B22  1.35 Fold
11. B3  1.47 Fold
12. B1  1.77 Fold
13. B5  1.80 Fold
14. B8  1.90 Fold
15. B6  1.92 Fold
16. B23  1.99 Fold
17. B15  2.15 Fold
18. B12  2.52 Fold
19. B19  2.58 Fold
20. B21  2.68 Fold
21. B9  3.07 Fold
22. B16  3.84 Fold
23. B20  4.42 Fold

Tested on: tet-on competent MLL/AF9+Nras AML
Test: as above
Format: cell-based, mouse
Conditions: deep sequencing reads, On Dox compared to T0
From the text: as §1, §2, §3, §4, §5

In order of falling “Fold depletion in AML” value:
1. B12  20.52 Fold
2. B18  20.18 Fold
3. B19  19.45 Fold
4. B11  19.44 Fold
5. B4  17.02 Fold
6. B10  16.44 Fold
7. B15  16.16 Fold
8. B16  16.16 Fold
9. B14  15.74 Fold
10. B22  15.69 Fold
11. B7  15.12 Fold
12. B3  14.91 Fold
13. B20  14.79 Fold
14. B23  14.33 Fold
15. B5  13.60 Fold
16. B1  13.37 Fold
17. B17  13.25 Fold
18. B21  13.18 Fold
19. B13  9.74 Fold
20. B9  9.66 Fold
21. B6  9.63 Fold
22. B8  9.60 Fold
23. B2  9.52 Fold
